The values below come from the supplement of paper PMC9112550, “Optimization of the antimicrobial peptide Bac7 by deep mutational scanning” (BMC Biology, 2022).

The subject of the data set is Escherichia coli TOP10. Kind of data set: shrunken log2 fold change of peptide-encoding DNA abundance (4.5 h post-induction vs induction); higher = less antimicrobial activity (less host growth inhibition). The conditions noted are these: time post-induction: 4.5 h; library: site-saturation at positions 5, 18, 19, 20.
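Further: peptides expressed intracellularly from a pBAD plasmid library in pooled LB shake-flask culture, induced with 0.3% L-arabinose, DNA abundance read by NGS, three biological replicates, DESeq2 with apeglm shrinkage.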

Turning to RRIRCRPPRLPRPRPRPCMPPRP, the “shrunken log2 fold change” value was -0.66. As for RRIRDRPPRLPRPRPRPCEQPRP, the figure is 0.0856. As for RRIRDRPPRLPRPRPRPIHVPRP, the figure is -0.554. Turning to RRIRYRPPRLPRPRPRPHWQPRP, the “shrunken log2 fold change” value is -0.0696.

As to RRIRVRPPRLPRPRPRPVYNPRP, the “shrunken log2 fold change” value is -0.738. For RRIRFRPPRLPRPRPRPKGWPRP, the “shrunken log2 fold change” value came to 0.589.

With RRIRYRPPRLPRPRPRPGGGPRP, the “shrunken log2 fold change” value worked out at 0.64.

On to RRIRWRPPRLPRPRPRPGNCPRP, for which the “shrunken log2 fold change” value was -0.0763.

Take RRIRRRPPRLPRPRPRPECRPRP: the “shrunken log2 fold change” value is 0.272.

As to RRIRWRPPRLPRPRPRPWSWPRP, the “shrunken log2 fold change” value came to 1.16. Take RRIRHRPPRLPRPRPRPPWPPRP: the “shrunken log2 fold change” value was determined as 0.504. In the case of RRIRIRPPRLPRPRPRPMMCPRP, the “shrunken log2 fold change” value is 0.0233. In the case of RRIRARPPRLPRPRPRPYERPRP, the “shrunken log2 fold change” value is 0.0697. RRIRNRPPRLPRPRPRPQSSPRP: the “shrunken log2 fold change” value is -0.0447. On to RRIRIRPPRLPRPRPRPKTWPRP, for which the “shrunken log2 fold change” value was -0.258. Consider RRIRLRPPRLPRPRPRPETIPRP, for which the “shrunken log2 fold change” value came to 0.0243.

Regarding RRIRGRPPRLPRPRPRPGCDPRP, the “shrunken log2 fold change” value was found to be 1.26. As to RRIRYRPPRLPRPRPRPPVKPRP, the “shrunken log2 fold change” value is -0.102. In the case of RRIRCRPPRLPRPRPRPHMKPRP it was -1.1; in that of RRIRIRPPRLPRPRPRPMLSPRP, -0.403; in that of RRIRCRPPRLPRPRPRPQEIPRP, -0.0405.

In the case of RRIRVRPPRLPRPRPRPVNMPRP, the “shrunken log2 fold change” value was -0.418. In the case of RRIRYRPPRLPRPRPRPTQNPRP it was 0.298. Consider RRIRPRPPRLPRPRPRPEYLPRP, for which the “shrunken log2 fold change” value was 0.0461.

Turning to RRIRQRPPRLPRPRPRPRDCPRP, the “shrunken log2 fold change” value was 0.142. Regarding RRIRHRPPRLPRPRPRPTSHPRP, the “shrunken log2 fold change” value is -0.837. As for RRIRTRPPRLPRPRPRPHETPRP, the figure is -0.00261.

Turning to RRIRTRPPRLPRPRPRPYTCPRP, the “shrunken log2 fold change” value was -0.0764. As for RRIRCRPPRLPRPRPRPQWQPRP, the figure is 0.0413; as for RRIRIRPPRLPRPRPRPAHFPRP, 0.0262; as for RRIRTRPPRLPRPRPRPVSAPRP, 0.252. As for RRIRKRPPRLPRPRPRPSQCPRP, the figure is 0.127.

For RRIRARPPRLPRPRPRPFWLPRP, the “shrunken log2 fold change” value was 0.0704. As for RRIRHRPPRLPRPRPRPKGFPRP, the figure is 0.0595; as for RRIRSRPPRLPRPRPRPHNWPRP, -0.248. As for RRIRARPPRLPRPRPRPITDPRP, the figure is -0.0703; as for RRIRFRPPRLPRPRPRPVESPRP, -0.0712; as for RRIRNRPPRLPRPRPRPKTPPRP, 0.228.

On to RRIRQRPPRLPRPRPRPNERPRP, for which the “shrunken log2 fold change” value is -0.0297. In the case of RRIRERPPRLPRPRPRPTPPPRP it was 0.491. For the sequence RRIRYRPPRLPRPRPRPLDFPRP, the “shrunken log2 fold change” value was -0.269. In the case of RRIRSRPPRLPRPRPRPFIPPRP it was -0.629; in that of RRIRARPPRLPRPRPRPAMVPRP, 0.109. In the case of RRIRTRPPRLPRPRPRPYLWPRP it was -0.284; in that of RRIRERPPRLPRPRPRPYKHPRP, -0.684; in that of RRIRRRPPRLPRPRPRPDGSPRP, 0.0601.

RRIRHRPPRLPRPRPRPSDIPRP: the “shrunken log2 fold change” value was -0.978. Regarding RRIRPRPPRLPRPRPRPEFIPRP, the “shrunken log2 fold change” value was -0.117. As for RRIRMRPPRLPRPRPRPGSYPRP, the figure is 0.124; as for RRIRHRPPRLPRPRPRPAKMPRP, 0.0344; as for RRIRLRPPRLPRPRPRPNETPRP, -0.0172. As for RRIRPRPPRLPRPRPRPWISPRP, the figure is -0.161. In the case of RRIRRRPPRLPRPRPRPRDNPRP, the “shrunken log2 fold change” value was found to be 0.15. As for RRIRMRPPRLPRPRPRPTMTPRP, the “shrunken log2 fold change” value was determined as 2.3. In the case of RRIRVRPPRLPRPRPRPCKHPRP it was -0.483; in that of RRIRDRPPRLPRPRPRPWHEPRP, -0.266. In the case of RRIRWRPPRLPRPRPRPNRQPRP it was 0.175; in that of RRIRGRPPRLPRPRPRPYLIPRP, -0.0775. For RRIRNRPPRLPRPRPRPEQPPRP, the “shrunken log2 fold change” value was determined as 0.0618. As for RRIRDRPPRLPRPRPRPEMPPRP, the figure is 0.0164; as for RRIRVRPPRLPRPRPRPWTGPRP, -0.0167; as for RRIRVRPPRLPRPRPRPAPMPRP, 0.324. RRIRQRPPRLPRPRPRPFSSPRP: the “shrunken log2 fold change” value was -0.0951. Regarding RRIRQRPPRLPRPRPRPPGHPRP, the “shrunken log2 fold change” value came out at 0.249.

On to RRIRYRPPRLPRPRPRPWYWPRP, for which the “shrunken log2 fold change” value is -0.0383. Turning to RRIRTRPPRLPRPRPRPPDFPRP, the “shrunken log2 fold change” value amounted to 0.0547.

RRIRQRPPRLPRPRPRPHGIPRP: the “shrunken log2 fold change” value is 0.179. In the case of RRIRIRPPRLPRPRPRPYFMPRP it was -1.21; in that of RRIRDRPPRLPRPRPRPSICPRP, -0.0317. Turning to RRIRPRPPRLPRPRPRPQFIPRP, the “shrunken log2 fold change” value was -0.653.

For RRIRERPPRLPRPRPRPWMKPRP, the “shrunken log2 fold change” value was -0.353. In the case of RRIRGRPPRLPRPRPRPIKFPRP it was 0.211; in that of RRIRLRPPRLPRPRPRPRKRPRP, 0.314; in that of RRIRFRPPRLPRPRPRPEWLPRP, 0.402.

For RRIRGRPPRLPRPRPRPALIPRP, the “shrunken log2 fold change” value was determined as 0.737.

As for RRIRLRPPRLPRPRPRPEMHPRP, the “shrunken log2 fold change” value is -0.132. Regarding RRIRLRPPRLPRPRPRPGKPPRP, the “shrunken log2 fold change” value was -0.0724.

Regarding RRIRSRPPRLPRPRPRPDNPPRP, the “shrunken log2 fold change” value is -0.0934. With RRIRTRPPRLPRPRPRPTQIPRP, the “shrunken log2 fold change” value is 0.0112. As for RRIRSRPPRLPRPRPRPVKRPRP, the figure is 0.26. As for RRIRFRPPRLPRPRPRPIYVPRP, the figure is -0.871. As for RRIRLRPPRLPRPRPRPFIHPRP, the figure is -0.807.

As for RRIRWRPPRLPRPRPRPNDYPRP, the “shrunken log2 fold change” value was -1.02.

As to RRIRERPPRLPRPRPRPCGMPRP, the “shrunken log2 fold change” value is -0.398. Regarding RRIRIRPPRLPRPRPRPDCTPRP, the “shrunken log2 fold change” value was determined as 0.0385.

In the case of RRIRYRPPRLPRPRPRPSCLPRP, the “shrunken log2 fold change” value was -0.56. Turning to RRIRIRPPRLPRPRPRPQHIPRP, the “shrunken log2 fold change” value is -0.542. In the case of RRIRARPPRLPRPRPRPWQKPRP it was -0.0111; in that of RRIRMRPPRLPRPRPRPLKDPRP, 0.0898. For RRIRQRPPRLPRPRPRPTDMPRP, the “shrunken log2 fold change” value was -0.0372. As for RRIRHRPPRLPRPRPRPDHHPRP, the figure is 0.0587; as for RRIRYRPPRLPRPRPRPLQLPRP, -1.13; as for RRIRKRPPRLPRPRPRPAEEPRP, 0.906. In the case of RRIRGRPPRLPRPRPRPCVKPRP, the “shrunken log2 fold change” value was found to be 0.063. Consider RRIRLRPPRLPRPRPRPHQQPRP, for which the “shrunken log2 fold change” value is 0.0445. In the case of RRIRGRPPRLPRPRPRPQTAPRP it was 0.205; in that of RRIRERPPRLPRPRPRPPPNPRP, 0.451; in that of RRIRTRPPRLPRPRPRPNIMPRP, -0.526. In the case of RRIRMRPPRLPRPRPRPCTKPRP it was 2.28; in that of RRIRTRPPRLPRPRPRPCLIPRP, -0.0324. As for RRIRWRPPRLPRPRPRPHPFPRP, the figure is -0.42.
